Assay results: publication PMC11187563, “The importance of tyrosines in multimers of cyclic RGD nonapeptides: towards αvβ6-integrin targeted radiotherapeutics” (RSC Medicinal Chemistry, 2024)
Read-outs that look alike come from different tables or passages of the source.

How the values were obtained:
[1] = Ex vivo biodistribution of 177Lu-labeled peptide tetramers in H2009 xenografted SCID mice; conditions: CB17 SCID, mouse, iv, total radioactivity; for tissue uptake at 1.5 h / tissue to tissue ratio at 1.5 h: 90 min p.i.; for tissue uptake at 24 h / tissue to tissue ratio at 24 h: 154 pmol, 24 h p.i.
Procedure, shortened: (§1)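 SCID mice carried subcutaneous H2009 xenografts on the right shoulder. 177Lu-labeled conjugates were injected i.v., and ex vivo organ distribution was measured at two time points post-injection.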

[2] = tested on: αvβ6-integrin expressing human lung adenocarcinoma cell line H2009 xenografts; experiment: as above; conditions: H2009 bearing SCID mice
Procedure, shortened: as §1

[3] = SPECT imaging of H2009 tumor xenograft, ROI-based tumor uptake; type: in vivo; conditions: SCID, mouse, iv, total radioactivity, i.v. injection of 36.5 MBq, scan time 1 h
Procedure: Fig. 6 Single-photon emission computed tomography (SPECT) of a SCID mouse bearing a human H2009 tumor xenograft on the right shoulder, recorded at 4 time points (1 h, 3 h, 24 h, and 72 h) after i.v. injection of 36.5 MBq of ^177Lu-Y8, scan time 1 h. Tumor position is indicated by white dotted circle. Adjacent figures denote ROI-based tumor uptakes in % IA mL^−1. TEXT PRINTED IN THE PICTURE: no label printed: % IA / mL: 2.8 (1 h p.i.); % IA / mL: 2.7 (3 h p.i.); % IA / mL: 2.4 (24 h p.i.); % IA / mL: 2.0 (72 h p.i.) DOUBTS OF THE COPYIST ABOUT THIS PICTURE: The picture prints no substance label. The unit % IA / mL is printed only at the colour scale bar, and assigning it to the numbers beside the dotted circles is assumed.
SPECT imaging was performed for 60 min per animal on a nanoScan SPECT/CT (Mediso, Budapest, Hungary) at different timepoints (1 h, 3 h, 24 h, 72 h) after intravenous injection of approx. 40 MBq [^177Lu]Lu-Y8 per animal (n = 2). Reconstruction, image analysis and quantification of SPECT data were performed using Nucline and Interview fusion software (both Mediso).

CC(C)C[C@@H]1NC(=O)[C@H](CC(=O)O)NC(=O)CNC(=O)[C@H](CCCNC(=N)N)NC(=O)[C@H](Cc2ccc(O)cc2)NC(=O)[C@H](CCCCNC(=O)CCc2cn(CCCNC(=O)CCP(=O)(O)CN3CCN(CP(=O)(O)CCC(=O)NCCCn4cc(CCC(=O)NCCCC[C@H]5C(=O)N[C@@H](Cc6ccc(O)cc6)C(=O)N[C@@H](CCCNC(=N)N)C(=O)NCC(=O)N[C@@H](CC(=O)O)C(=O)N[C@@H](CC(C)C)C(=O)N[C@@H](C)C(=O)N[C@@H](Cc6ccc(O)cc6)C(=O)N6CCC[C@@H]6C(=O)N5C)nn4)CCN(CP(=O)(O)CCC(=O)NCCCn4cc(CCC(=O)NCCCC[C@H]5C(=O)N[C@@H](Cc6ccc(O)cc6)C(=O)N[C@@H](CCCNC(=N)N)C(=O)NCC(=O)N[C@@H](CC(=O)O)C(=O)N[C@@H](CC(C)C)C(=O)N[C@@H](C)C(=O)N[C@@H](Cc6ccc(O)cc6)C(=O)N6CCC[C@@H]6C(=O)N5C)nn4)CCN(CP(=O)(O)CCC(=O)NCCCn4cc(CCC(=O)NCCCC[C@H]5C(=O)N[C@@H](Cc6ccc(O)cc6)C(=O)N[C@@H](CCCNC(=N)N)C(=O)NCC(=O)N[C@@H](CC(=O)O)C(=O)N[C@@H](CC(C)C)C(=O)N[C@@H](C)C(=O)N[C@@H](Cc6ccc(O)cc6)C(=O)N6CCC[C@@H]6C(=O)N5C)nn4)CC3)nn2)N(C)C(=O)[C@H]2CCCN2C(=O)[C@H](Cc2ccc(O)cc2)NC(=O)[C@H](C)NC1=O [Compound 177Lu-Y8, metal not drawn] showed a tissue uptake at 1.5 h ([1]; spleen, + 50 nmol non-labeled compound 10 min prior to activity, n = 2, read-out: Spleen %IA/g, + 50 nmol cold) of 4.99 %ID/g, a tissue uptake at 1.5 h ([1]; stomach (empty), 124 pmol, H2009 bearing SCID mice, read-out: Stomach (empty) %IA/g) of 8.26 %ID/g and a tissue uptake at 24 h ([1]; stomach (empty), H2009 bearing SCID mice, read-out: Stomach (empty) %IA/g) of 3.84 %ID/g. The tissue uptake at 72 h ([1]; stomach (empty), 199 pmol, 3 d p.i., H2009 bearing SCID mice, read-out: Stomach (empty) %IA/g) was 2.65 %ID/g, the tissue uptake at 1.5 h ([1]; stomach (empty), + 50 nmol non-labeled compound 10 min prior to activity, n = 2, read-out: Stomach (empty) %IA/g, + 50 nmol cold) was 1.19 %ID/g and the tissue uptake at 24 h ([1]; tumor (H2009 xenograft), H2009 bearing SCID mice, read-out: Tumor H2009 %IA/g) was 2.42 %ID/g. For the same compound, the tissue uptake at 1.5 h ([1]; tumor (H2009 xenograft), + 50 nmol non-labeled compound 10 min prior to activity, n = 2, read-out: Tumor H2009 %IA/g, + 50 nmol cold) was 1.71 %ID/g, the tissue to tissue ratio at 72 h ([1]; tumor / adrenals, 199 pmol, 3 d p.i., H2009 bearing SCID mice, read-out: tumor/organ ratio, Adrenals) was 4.5 and the tissue to tissue ratio at 24 h ([1]; tumor / blood, H2009 bearing SCID mice, read-out: tumor/organ ratio, Blood) was 59.6. The tissue to tissue ratio at 72 h ([1]; tumor / bone, 199 pmol, 3 d p.i., H2009 bearing SCID mice, read-out: tumor/organ ratio, Bone) was 3.4, the tissue to tissue ratio at 24 h ([1]; tumor / heart (myocard), H2009 bearing SCID mice, read-out: tumor/organ ratio, Heart (myocard)) was 15.2 and the tissue to tissue ratio at 72 h ([1]; tumor / large intestine (empty), 199 pmol, 3 d p.i., H2009 bearing SCID mice, read-out: tumor/organ ratio, Large intestine (empty)) was 3.6. It also gave a tissue to tissue ratio at 24 h ([1]; tumor / liver, H2009 bearing SCID mice, read-out: tumor/organ ratio, Liver) of 2.7, a tissue to tissue ratio at 24 h ([1]; tumor / lung, H2009 bearing SCID mice, read-out: tumor/organ ratio, Lung) of 2.1 and a tissue to tissue ratio at 72 h ([1]; tumor / muscle, 199 pmol, 3 d p.i., H2009 bearing SCID mice, read-out: tumor/organ ratio, Muscle) of 8.4. It also gave a tissue to tissue ratio at 72 h ([1]; tumor / small intestine (empty), 199 pmol, 3 d p.i., H2009 bearing SCID mice, read-out: tumor/organ ratio, Small intestine (empty)) of 11.4, a tissue to tissue ratio at 24 h ([1]; tumor / spleen, H2009 bearing SCID mice, read-out: tumor/organ ratio, Spleen) of 1.4 and a tissue to tissue ratio at 72 h ([1]; tumor / stomach (empty), 199 pmol, 3 d p.i., H2009 bearing SCID mice, read-out: tumor/organ ratio, Stomach (empty)) of 0.8. It also gave a tissue to tissue ratio at 1.5 h ([1]; tumor/adrenals, 124 pmol, H2009 bearing SCID mice, read-out: tumor/organ ratio, Adrenals) of 8.9, a tissue to tissue ratio at 24 h ([1]; tumor/adrenals, H2009 bearing SCID mice, read-out: tumor/organ ratio, Adrenals) of 10.2 and a tissue to tissue ratio at 1.5 h ([1]; tumor/blood, 124 pmol, H2009 bearing SCID mice, read-out: tumor/organ ratio, Blood) of 2.4. The tissue to tissue ratio at 72 h ([1]; tumor/blood, 199 pmol, 3 d p.i., H2009 bearing SCID mice, read-out: tumor/organ ratio, Blood) was 67, the tissue to tissue ratio at 1.5 h ([1]; tumor/bone, 124 pmol, H2009 bearing SCID mice, read-out: tumor/organ ratio, Bone) was 1.8 and the tissue to tissue ratio at 24 h ([1]; tumor/bone, H2009 bearing SCID mice, read-out: tumor/organ ratio, Bone) was 3.6. The tissue to tissue ratio at 1.5 h ([1]; tumor/heart (myocard), 124 pmol, H2009 bearing SCID mice, read-out: tumor/organ ratio, Heart (myocard)) was 5.9, the tissue to tissue ratio at 72 h ([1]; tumor/heart (myocard), 199 pmol, 3 d p.i., H2009 bearing SCID mice, read-out: tumor/organ ratio, Heart (myocard)) was 12.2 and the tissue to tissue ratio at 1.5 h ([1]; tumor/large intestine (empty), 124 pmol, H2009 bearing SCID mice, read-out: tumor/organ ratio, Large intestine (empty)) was 1.8. The tissue to tissue ratio at 24 h ([1]; tumor/large intestine (empty), H2009 bearing SCID mice, read-out: tumor/organ ratio, Large intestine (empty)) was 1.8, the tissue to tissue ratio at 1.5 h ([1]; tumor/liver, 124 pmol, H2009 bearing SCID mice, read-out: tumor/organ ratio, Liver) was 5.1 and the tissue to tissue ratio at 72 h ([1]; tumor/liver, 199 pmol, 3 d p.i., H2009 bearing SCID mice, read-out: tumor/organ ratio, Liver) was 2.4. For the same compound, the tissue to tissue ratio at 1.5 h ([1]; tumor/lung, 124 pmol, H2009 bearing SCID mice, read-out: tumor/organ ratio, Lung) was 1, the tissue to tissue ratio at 72 h ([1]; tumor/lung, 199 pmol, 3 d p.i., H2009 bearing SCID mice, read-out: tumor/organ ratio, Lung) was 2.2 and the tissue to tissue ratio at 1.5 h ([1]; tumor/muscle, 124 pmol, H2009 bearing SCID mice, read-out: tumor/organ ratio, Muscle) was 7.4. It also gave a tissue to tissue ratio at 24 h ([1]; tumor/muscle, H2009 bearing SCID mice, read-out: tumor/organ ratio, Muscle) of 9.5, a tissue to tissue ratio at 1.5 h ([1]; tumor/pancreas, 124 pmol, H2009 bearing SCID mice, read-out: tumor/organ ratio, Pancreas) of 14.3 and a tissue to tissue ratio at 24 h ([1]; tumor/pancreas, H2009 bearing SCID mice, read-out: tumor/organ ratio, Pancreas) of 18.4. For the same compound, the tissue to tissue ratio at 72 h ([1]; tumor/pancreas, 199 pmol, 3 d p.i., H2009 bearing SCID mice, read-out: tumor/organ ratio, Pancreas) was 14.9, the tissue to tissue ratio at 1.5 h ([1]; tumor/small intestine (empty), 124 pmol, H2009 bearing SCID mice, read-out: tumor/organ ratio, Small intestine (empty)) was 2.1 and the tissue to tissue ratio at 24 h ([1]; tumor/small intestine (empty), H2009 bearing SCID mice, read-out: tumor/organ ratio, Small intestine (empty)) was 2.5. For the same compound, the tissue to tissue ratio at 1.5 h ([1]; tumor/spleen, 124 pmol, H2009 bearing SCID mice, read-out: tumor/organ ratio, Spleen) was 0.7, the tissue to tissue ratio at 72 h ([1]; tumor/spleen, 199 pmol, 3 d p.i., H2009 bearing SCID mice, read-out: tumor/organ ratio, Spleen) was 1 and the tissue to tissue ratio at 1.5 h ([1]; tumor/stomach (empty), 124 pmol, H2009 bearing SCID mice, read-out: tumor/organ ratio, Stomach (empty)) was 0.7. For the same compound, the tissue to tissue ratio at 24 h ([1]; tumor/stomach (empty), H2009 bearing SCID mice, read-out: tumor/organ ratio, Stomach (empty)) was 0.7, the “tumor/organ ratio, Kidneys” value ([2]; 90 min p.i.) was 0.0 and the “tumor/organ ratio, Kidneys” value ([2]; 24 h p.i.) was 0.0. The “tumor/organ ratio, Kidneys” value ([2]; 3 d p.i.) was 0.0, the tissue uptake per volume at 1 h ([3]; 1 h p.i.) was 2.8 %ID/mL and the tissue uptake per volume at 3 h ([3]; 3 h p.i.) was 2.7 %ID/mL. The tissue uptake per volume at 24 h ([3]; 24 h p.i.) was 2.4 %ID/mL and the tissue uptake per volume at 72 h ([3]; 72 h p.i.) was 2 %ID/mL.
